# Assay results taken from patent US20160199473A1 (Johns Hopkins, published 2016).
# B1: Mesothelin A3(225-234) (peptide)
# peptide: ALQGGGPPY
# notes: Synthetic nonamer from mesothelin; printed range spans ten positions; also called MesoA3(225-234)
# B2: Mesothelin A3(83-92) (peptide)
# peptide: ELAVALAQK
# notes: Synthetic nonamer from mesothelin; printed range spans ten positions; also called MesoA3(83-92)
# B3: Mesothelin A1309-318 binding epitope (EIDESLIFY) (peptide)
# peptide: EIDESLIFY
# notes: also called Mesothelin A1309-318 peptide
# B4: Mesothelin A2(20-28) (peptide)
# peptide: SLLFLLFSL
# notes: Synthetic nonamer from mesothelin; legends print the position as 20-29; also called Mesothelin A220-29; MesoA2(20-29)
# B5: PSCA (5-13) peptide LLALLMAGL (peptide)
# peptide: LLALLMAGL
# notes: Synthetic nonamer from prostate stem cell antigen; also called PSCA A2(5-13); PSCA A3(5-13)
# B6: PSCA (108-116) peptide ALLPALGLL (peptide)
# peptide: ALLPALGLL
# notes: Synthetic nonamer from prostate stem cell antigen; also called PSCA A2(108-116); PSCA A24(108-116)
# B7: PSCA (14-22) peptide ALQPGTALL (peptide)
# peptide: ALQPGTALL
# notes: Synthetic nonamer from prostate stem cell antigen; also called PSCA A2(14-22); PSCA A3(14-22)
# B8: PSCA (43-51) peptide QLGEQCWTA (peptide)
# peptide: QLGEQCWTA
# notes: Synthetic nonamer from prostate stem cell antigen; also called PSCA A3(43-51); PSCA A243-51
# B9: Mesothelin A2(530-538) (peptide)
# peptide: VLPLTVAEV
# notes: Synthetic nonamer from mesothelin; legends print the position as 530-539; also called Mesothelin A2530-539; MesoA2(530-539)
# B10: PSCA (109-117) peptide LLPALGLLL (peptide)
# peptide: LLPALGLLL
# notes: Synthetic nonamer from prostate stem cell antigen; also called PSCA A3(109-117); PSCA A24(109-117)
# B11: PSCA (99-107) peptide ALQPAAAIL (peptide)
# peptide: ALQPAAAIL
# notes: Synthetic nonamer from prostate stem cell antigen; also called PSCA A3(99-107); PSCA A24(99-107)
# B12: PSCA (20-28) peptide ALLCYSCKA (peptide)
# peptide: ALLCYSCKA
# notes: Synthetic nonamer from prostate stem cell antigen; also called PSCA A3(20-28); PSCA A320-28
# Molecular target: T1, HLA-A3 (HLA-A301 allele) on T2-A3 cells (human)
# T1 construct: whole, on cells; MHC class I molecule on the surface of T2-A3 cells
# Experiment: T2 binding assay, flow cytometry with GAPA3 (FIG. 1B)
# From the text: (§1) Peptide pulsed cells were stained with an unlabeled mouse anti-HLA class I molecule monoclonal antibody W6/32 and a goat-anti-mouse FITC-labeled IgG2a secondary antibody. FIG. 1E. T2 cells genetically modified to express A3 and pulsed with either: Mesothelin A1309-318 binding peptide (green line), PSCA A399-107 (pink line), A35-13 (blue line), A314-22 (orange line), A3109-117 (purple line), A343-51 (red line), and PSCA A320-28 (yellow line). Peptide pulsed cells were stained with an unlabeled mouse anti-human HLA-A3 specific monoclonal antibody GAPA3 and a FITC-labeled IgG2a secondary antibody. FIG. 1F. T2 cells genetically modified to express A24 and pulsed with either: Mesothelin A1309-318 peptide (green line), PSCA A2476-84 (pink line), PSCA A24108-116 (blue line), PSCA A2499-107 (orange line), PSCA A24109-117 (purple line), and PSCA A2477-85 (red line). Peptide pulsed cells were stained with an unlabeled pan-HLA antibody W6/32 and a FITC-labeled IgG2a secondary antibody.
# (§2) Binding of these epitopes to their respective HLA class I molecule was tested by pulsing TAP deficient T2 cells that expressed the corresponding HLA class I molecule (T2-A2, T2-A3, or T2-A24 cells). […]
# (§3) Materials and Methods: Peptide/MHC binding Assays. […] Peptide binding was determined by FACS (Beckon Dickenson, San Jose, Calif.) analysis.
row,Binder,binding result
1,B1,binds
2,B2,binds

# Molecular target: T2, HLA-A2 (HLA-A*0201 allele) on T2 cells (human)
# T2 construct: whole, on cells; MHC class I molecule on the surface of T2 cells; also called T2-A2 cells
# Experiment: T2 peptide/MHC binding assay, flow cytometry with W6/32
# From the text: as §1, §2, §3
row,Binder,binding result
1,B3,no binding
2,B4,binds

# Molecular target: T2, HLA-A2 (HLA-A*0201 allele) on T2 cells
# Experiment: T2 binding assay, flow cytometry with W6/32 (FIG. 1D)
# From the text: as §1
# (§4) Binding of these epitopes to their respective HLA class I molecule was tested by pulsing TAP deficient T2 cells that expressed the corresponding HLA class I molecule (T2-A2, T2-A3, or T2-A24 cells). […] Binding of T2 cells pulsed with two candidate mesothelin derived HLA-A3 and two candidate HLA-A24 epitopes are shown in FIG. 1B and FIG. 1C, respectively. A similar binding experiment was done with the PSCA derived peptides for HLA-A2, HLA-A3, and HLA-A24. (FIG. 1D, FIG. 1E and FIG. 1F).
# (§5) Materials and Methods: Peptide/MHC binding Assays. T2 cells expressing the HLA molecule of interest were resuspended in AimV serum free media (Gibco) to a concentration of 2.5×10⁵ cells/ml and pulsed with 100-200 micrograms of peptide at room temperature overnight. Pulsing at room temperature allows for optimizing the number of empty HLA molecules available for binding each epitope (30). The cells were washed and resuspended at 1×10⁵ cells/ml. Peptide binding was determined by FACS (Beckon Dickenson, San Jose, Calif.) analysis.
row,Binder,binding result
1,B5,binds
2,B6,binds
3,B7,binds
4,B8,binds

# Molecular target: T2, HLA-A2 (HLA-A*0201 allele) on T2 cells
# Experiment: T2 binding assay, flow cytometry with W6/32 (FIG. 1A)
# From the text: as §1, §2, §3
row,Binder,binding result
1,B9,binds

# Molecular target: T1, HLA-A3 (HLA-A301 allele) on T2-A3 cells
# Experiment: T2 binding assay, flow cytometry with GAPA3 (FIG. 1E)
# From the text: as §1, §4, §5
row,Binder,binding result
1,B10,binds
2,B5,binds
3,B7,binds
4,B11,binds
5,B12,binds
6,B8,binds
